The data set in a line: label from the status in PepcDB records.

We go through 22 sequences from a protein production outcome set (Wang et al. 2014).

“LTTAGYYAAVDWGTSSFRLWIIGEDGAVLAERRSAEGMTTAAKTGFHTILDGHLAAVSAPAHLPIIICGMAGARQGWKEAGYIETPAALAEIAGRATAIPDVDRDIRILPGLAQRDRRHPDVMRGEETQLLGAAAHLGAGSHLVCMPGTHSKWVRLADDRVEGFSTFMTGELFDTIARHTILSHAVAEADTFAAGSAAFTDAVSRTRENPALATNLLFSVRAGQLLHGTAAADARAQLSGTLIGLEIAGALAGSGSVDGVCLVGSGGLGTLYRTALESQGLNVRAVDADEAVRAGLSAAARAIWPL”: the protein production result is “not failed”.
Under “LTVHYDLQLYKINYKTQSPDGNLTIASGLVAMPIHPVGQVGIISYQHGTRFERNDVPSRNNEKNYIYLAAYGNSAGYMTVMPDYLGLGDNELTLHPYVQAETLASSSIDMLFAAKELANRLHYPISDKLYLAGYSEGGFSTIVMFEMLAKEYPDLPVSAVAPGSAPYGWEETMHFVMLEPGPRATAYLAYFFYSLQTYKSYWSGFDEIFAPPYNTLIPELMDGYHAVDEILQALPQDPLLIFQPKFSNGIISKTDRNTEILKINFNHYDFKPTAPLLLVGTKGDRDVPYAGAEMAYHSFRKYSDFVWIKSVSDALDHVQAHPFVLKEQVDFFKQFERQE” stands “not failed”; under “LTVTVTHSNEKHDLHVTSQQGSSEPVVQDLAQVVEEVIGVPQSFQKLIFKGKSLKEMETPLSALGIQDGCRVMLIGKKN”, “not failed”.
Under “LVADASPFAMLEQAPDDLISHYDLTGRLLRVSPAWSRIIGGSVAEAAGRRTWDFIAPEDHPAVAAYYADLLREGAAPSSRLRMRVRHVAGDIRVLESRPMPIRNAEGVVTGFVDIARDITEQIETERRYQLALAQAHEA” stands “failed”; under “LVRQEETLRLAIDAADVGTWDHDLETGEVRLSDRCYAMFGVTPGEPVTHETLMPFTHPADVVRVQEAVARALDPAIRADYAIEFRVNGRDDHVERWLSAKGEVSFDNEGRPRRFLGAVVNITERKRAELHLRLLVNELNHRVKNSLATIQAIAAQSFNGQRDMDEAKEAFSNRIVALAEAHDLLTRENWEGAEMHDVAARVAALHGGDARFELSGVAIRLSPKTALSLSMALHELATNAVKYGALSVPEGVVRIVWDMAPEP”, “failed”; under “LYATLSGVSLALADSADRRILLQTVCDVCVREAGFEMAWVGLLDADEKRVEVAALSRGERASMPGELPGHAEDAQAPGPVSRALRSRAAQVSNDAQSDPALKPWHGALSRQGIRSLLVVPLLVRQQVAGALALHAGEEGFFDQSRRALFELMAREIGRGLERHDALERSHRAETELAFLAQ”, “failed”.
Under “LYPILIGIYASVIPFYIALYSTFRLLSYIDENKAFSQISVKALNNIKHCTIAISILYMATMPFVYLLADKDDAPGLIIIGMVPIFASLVISVFSAVLQRLLQEAIDIKSENDLTV” stands “failed”.
Consider “MAAEHGLILDFTTVLGASALGGYLANRLRQPVLLGYLVTGLALGPYGLKLLSDVPRIQSLASIGVAFLLFALGVEFSLTELRRVKNIAINGSLLQIGLTTALVAFLTITLGWVDNLTQGIFLGVVLSLSSTAVVLKTLGERGETNTLHGQVMLAILIAQDLALGLILAFLPVLNQPERLVWALGIALLKVLLFLALAIALGRWIVPKLISNVAATESTELFVLTVISLCLSVALVTAKLGLSIEMGAFVAGLMVSEIDHADHALAKVLPLRDTFACLFFASIGMLIDPIALMQNLGLVLGLVTLVMLGKAIVVMPIILKFGYSLKTTILTSLGINQIGEFSFVLALAGLQLQLIPEKTYILLLETTAITLVLTPISLNIAPQLIERLTQIPFFAQSLRQFTEPNILSIPETISGHVVVAGYGRVGQVIVNILLNQGYVVLVIENSEAAIQRLRMQRIPYIFGDADSELVLEKIHLETAKALAIALPDPASSRLLLKRALAIAPKLDVIARSHHDNEIDLLTQMGAKEVVQPEFEAALELSAHLLSTLGEAKSQIDTVISDIRTDRYRSIRPRR”, for which the protein production entry was “failed”.
On to “MAAHLEEQQELDNFKYFWKTTGKWLFALLILAALGYLGYTVYQNRKVSQNQEAAAVLANIVEKAQSKAPQSEINAELTKLQQSYPHSISAAQATLMAAATEFDAQRYDVAEGHLKWVLSNQKDSLIQALAAQRLGVVLLQQKKYDAALAALDTPVEADFAPLLMETKGDVYAAQGKSQEALKNYGQALEKMPQDSVGRELVQMKLDSLK”, for which the protein production result is listed as “failed”.
For “MAAIVLTRNLQLAKHHGSGVVGVLCLRGYSAAAAPPEDGPRPLKTTNPAAMKRGTGGRSSFNGIVATVFGATGFVGRYVCNKLGKSGTQMILPYRGDDSDVIRLKVTGDLGQVLFHFYNLEDPASIRDAVKHSNVVINLVGRDFETKNFKFKDVHVNGAERIARIAREAGVERLIHLSSLNVEANPKDLYVKGGSEWLKSKYEGELRVRDAFPNATIIRPADIYGSEDRFLRYYAHIWRRQFRSMPLWHKGEKTVKQPVYVSDVAQAIINAAKDPDSAGRIYQAVGPKRYQLSELVDWFHRLMRKDQKRWGYMRYDMRWDPTFLLKAKLNSFICPGTPIGGLHPARIEREAVTDKVLTGVPTLEDLGVTLTTMEQQVPWELRPYRAALYYDAELGEFETPSPPKCIEARDELRLFA” the value was “failed”; for “MAAKLCIPSSSFSHRTNDSITSSSSSYSSLLALPQFFCPPSPLGFPQFKLHAKLGGGDGEVKPKDKKKFITKDEEPEQYWQSVGEREGENPMKTPLPYIIIFGMSTPFVILAIAFANGWIKVPIR”, “failed”.
For “MAAKTRTFRAAADAWLKAKEEKGLAPSTLNKIRTYLDKDILPALGDKPLDEITRTDCAELQASIEARDAHNVAEKCRTWINQIFGRAIGLGLTENDPGSRLRDIAAQAPKTQLEHHHHHH” the value was “failed”; for “MAALAIIQSLNTSSYPIDIQRLKPKKMPEEPGPARNKFRSDFIVEIALIVAVAVYLVMAQGQVVGENLSFTVTGAALMALATYWTLHTIRDGLEVIALRLRPGK”, “failed”.
For “MAANRRNETASEAHGLDDILSAAAPRPRTALPNVATTVTTVAALYFGREVFLPIAIALLLTFALAPLVSALKRVGIPRIAAVIVSVLSAFAALALFSFVVATQVSELAQNIPVYQTNILAKIRSLKETGVGGGIIAKLSNVVERVGQEIDRQDATLPAATPDKQPREPVPVEIVARERPLEVLQNIVGPLISPLGSAGLIIVVVIFMLLEREDLRDRFIRLVGYGDLHRTTEALQDAAKRVGRYLLMQLVVNIVYAIPIAIGLWILGIPNALLWGLLALALRFVPYIGPAIGMLLPLFLALAVAPGWSLVLWTAALFVVMELVTGNVVEPWLYGSRTGLSPLAIIVAAIFWTWLWGPLGLVLSTPLTVCLVVLGRHVPQFEFLDVLFGNEPVLEPHARLYQRLLAGDPDEATDHAEEMLEEKYLVEFYDKVAIPALLLGERDRARGVMGDQQRRQVAASALALVANLEDDAKEEADGDDAPHVAEAEGEPGDAVEEEATELPDGTGLSVLCAGGRGDLDDAAAAMLAQVLEVQGATASKAGFAEMEPASIRRLELETIDTVVVGFLNRDSVKHARFLVRRLKRAKAALRVGIVFWSETGNGDKEAAAKLAQDINADFVAHGMVDAVTDALSHEPPVALKLVAKRRMRRPRAAPRKVPAAAAG” the value was “failed”; for “MAAPELLIPWADFLLCVALIAVAGNRLSRYGDVIAEKTGLSGSWIGLILLATATSLPELITGAAAVTAAGAPDIAAGDVLGSCVFNLVILVALDFLHRHESVYRRASQGHLLSAGFGIILLGLVGVNLLLADKHIVPTLGWVGLYSPLLGLLYLFSMRAVFLYEREQMAAFTEDMTEQYPGIRLRRAVMWYVAVAAVVVGAGVWLPSIGTTLAEVMGWNKSFVGTLFVAAATSMPELSVTIGAVRIRAVDMAIANLLGSNLFDLCILAIDDLAYLPGPLLSHVSSVHALSAFSAMVMTGIFIVGLLYRAGTRLFKTVGWVSIALLLVYLGNAYVLYLYDK”, “failed”; for “MAAPGGRGRSLSGLLPAQTSLEYALLDAVTQQEKDSLVYQYLQKVDGWEQDLSVPEFPEGLEWLNTEEPISVYKDLCGKIVVLDFFTYCCINCIHLLPDLHALEHTYSDKDGLLIIGVHSAKFPNEKVLDNIKSAVLRYNITHPMVNDADASLWQELEVSCWPTLVILGPRGNMLFSLIGEGHKDKLFLYTSIALKYYKDRGQIRDNKIGIKLYKDSLPPSPLLFPGKVTVDQVTDRLVIADTGHHRILVVWKNGQIQYSIGGPNPGRKDGIFSESTFNSPQGVAIMNNIIYVADTENHLIRKIDLEAEKVSTVAGIGIQGTDKEGGAKGEQQPISSPWDVVFGTSGSEVQRGDILWIAMAGTHQIWALLLDSGKLPKKNELTKGTCLRFAGSGNEENRNNAYPHKAGFAQPSGLSLASEDPWSCLFVADSESSTVRTVSLKDGAVKHLVGGERDPMNLFAFGDVDGVGINAKLQHPLGVTWDKKRNLLYVADSYNHKIKVVDPKTKNCTTLAGTGDTNNVTSSSFTESTFNEPGGLCIGENGELLYVADTNNHQIKVMDLETKMVSVLPIFRSENAVVDGPFLVEKQKTLPKLPKSAPSIRLSPVTACAGQTLQFKLRLDLPSGSKLTEGVSSCWFLTAEGNEWLLQGQIAAGDIENISSQPTISLQIPDDCLSLEAIVSVSVFLYYCSADSSACMMKAILFSQPLQITDTQQGCIAPVELRYVF”, “failed”.
Regarding “MAAPRPGPLRPARGFAPMNNVNGILLVVAAMAAFSIEDMFIKKLSVTVPIGQILLVLGVFCSAAFLTMAVATRKRVFSRAAWSPLLLIRAATEAVSALTFATALSLVDLSTVAAVFQAMPLVVTMGAALFLGEQVGWRRWSAITVGFVGVLMIIRPGMAGFQPAQLLVVASVISVAARDLITRRIDAHVASAVVSFQAYLALILGGAGILLVSGTALVPVEPGHWGPYAGAILFGVLGYYGIVTAMRVGEASVVTPFRYTRLLFSLLAGVLVFGERPDWPTLAGGALIIGSGLYTFLRERRLARELAAVPA”, the protein production entry is given as “failed”.
For “MAAPRVIMAAPRVIMAAITGVTPEVVNRTRPERRDLADMRAAMKTGFTAVASVIGVGVAGLAYGVIEAHRFVVRHVEVPVLKPGSSPLRILHMSDLHLLARQETKRRFIRQLDALNPDLVINTGDNFCSADSLQPLLDDMSGLLQRPGTFVFGSNDYLVPKFKNPFSYLLWGRSQQATEPVPELPHEELRQAFTSAGWLDLNDKSETLEVAGHRLTLRGTDDAHHDRDHYEEVAGPPDGEADLNIGVTHAPYLKILDAMVSDGMDIVFAGHTHGGQVCLPFTGAIITNCDLDTERAKGLSQHGRGGHTGWLHVSAGLGCSPFAPYRTFCRPEATLLTLVPRP” the value was “failed”.
“MAAPSVPTPLYGHVGRGAFSDVYEPAEDTFLLLDALEAAAAELAGVELCLEVGAGSGVVSAFLASMIGPQALYMCTDINPKAAACTLETARCNRVHLQPVITDLVQGLLPRLKGKVDLLVFNPPYVVTPPEEVGSHGIEAAWAGGRNGREVMDRFFPLASQLLSPRGLFYLVTIKENNPVLPRSYGNAANVPELGSGQLGENLLAFKSNIGGLSKGKLYH”: the protein production result is “failed”.
Regarding “MAAPVVVAPAINLQHMDLPEGNEDVAAVLQTSTQRWLNAAEWSILYNNHNLFPESNSFTIPIEVEGLYRVDNRFNQDSNTWRNTSAPSTCKNAINFYNVRIATGLYRFDDDGDIVMDAEVQGGWVLCRKTVRNRGHCGTRLSHLYKPVFDRQFKMLKIHMMEDMIKDGEEKSLDTFVISRQLTTFTDLTGWAFGSSVIVEFKVRLEHLRGKSIPIA”, the protein production result is “failed”.
Under “MAARAWVVAVVGFFVMWLMFQVVGWVIGVIWGVWQQLDQATAGTMIEPPQDWKNMLNSLYSNMLGIWNYLPVVVLLSAVVYIIIESLRRRPEEYYV” stands “failed”.
For “MAARDPEATKARIFEAAVAEFARHGIAGARIDRIAAEARANKQLIYAYYGNKGELFASVLEKKMLDLAISVPVDPDDIEGWIDRLLDYHAAHPELLRLLFWEGMEYGTAELPHEAERQEHYARKVAAVRDGQERGVITDAIPAPDLLFLLVAMANWAVVVPQMKRILVGGGDAGTDGLRDSIKKAARRIVDR” the value was “not failed”.
